From patent publication US20260085129A1 (ECO ANIMAL HEALTH, published 2026)

B1: 17B11 + 03D03 + 03E11 2(G4S) triparatopic VHH construct (bispecific antibody)
chain: QVQLVESGGGLVQAGGSLRLSCAASGRTFSSYAMGWFRQTPGKDREFVARIGWTGGTTIYADSVKGRFTISRDNAKNTVYLQMNSLKPEDTAVYYCAADQAGWRTAGVRNTYEYDYWGQGTQVTVSSGGGGSGGGGSQLQLVESGGGLVQPGGSLRLSCAASGFTLDDYTIGWFRQAPGKEREGVSCINSITSNTYYADSVKGRFTISRDNAKNTVYLQMNSLTAEDTAIYYCAADSGLFSGSSCLKYRAMRFGSWGQGTQVTVSSGGGGSGGGGSQVQLQESGGGLVQVGSSLRLSCVTSGRTPSRYVMGWFRQAPGQEREFVAAISWSGRAPYADSVKGRFTISRDNAKNTVYLQMNSLKPEDTGVYYCAGGEGAIKWTTLDAYDYWGQGTQVTVSS
notes: Triparatopic; not shown: FLAG and His tags
B2: 03E11 + 03D03 + 17B11 2(G4S) triparatopic VHH construct (bispecific antibody)
chain: QVQLQESGGGLVQVGSSLRLSCVTSGRTPSRYVMGWFRQAPGQEREFVAAISWSGRAPYADSVKGRFTISRDNAKNTVYLQMNSLKPEDTGVYYCAGGEGAIKWTTLDAYDYWGQGTQVTVSSGGGGSGGGGSQLQLVESGGGLVQPGGSLRLSCAASGFTLDDYTIGWFRQAPGKEREGVSCINSITSNTYYADSVKGRFTISRDNAKNTVYLQMNSLTAEDTAIYYCAADSGLFSGSSCLKYRAMRFGSWGQGTQVTVSSGGGGSGGGGSQVQLVESGGGLVQAGGSLRLSCAASGRTFSSYAMGWFRQTPGKDREFVARIGWTGGTTIYADSVKGRFTISRDNAKNTVYLQMNSLKPEDTAVYYCAADQAGWRTAGVRNTYEYDYWGQGTQVTVSS
notes: Triparatopic: three anti-porcine CD163 VHHs in one chain; also called Tri-2; Tri2; not shown: FLAG and His tags
B3: 03E11 + 17B11 2(G4S) biparatopic VHH construct (bispecific antibody)
chain: QVQLQESGGGLVQVGSSLRLSCVTSGRTPSRYVMGWFRQAPGQEREFVAAISWSGRAPYADSVKGRFTISRDNAKNTVYLQMNSLKPEDTGVYYCAGGEGAIKWTTLDAYDYWGQGTQVTVSSGGGGSGGGGSQVQLVESGGGLVQAGGSLRLSCAASGRTFSSYAMGWFRQTPGKDREFVARIGWTGGTTIYADSVKGRFTISRDNAKNTVYLQMNSLKPEDTAVYYCAADQAGWRTAGVRNTYEYDYWGQGTQVTVSS
notes: Biparatopic; not shown: FLAG and His tags
B4: 03E11 + 03D03 5(G4S) biparatopic VHH construct (bispecific antibody)
chain: QVQLQESGGGLVQVGSSLRLSCVTSGRTPSRYVMGWFRQAPGQEREFVAAISWSGRAPYADSVKGRFTISRDNAKNTVYLQMNSLKPEDTGVYYCAGGEGAIKWTTLDAYDYWGQGTQVTVSSGGGGSGGGGSGGGGSGGGGSGGGGSQLQLVESGGGLVQPGGSLRLSCAASGFTLDDYTIGWFRQAPGKEREGVSCINSITSNTYYADSVKGRFTISRDNAKNTVYLQMNSLTAEDTAIYYCAADSGLFSGSSCLKYRAMRFGSWGQGTQVTVSS
notes: as for B3
B5: 03E11 + 03D03 2(G4S) biparatopic VHH construct (bispecific antibody)
chain: QVQLQESGGGLVQVGSSLRLSCVTSGRTPSRYVMGWFRQAPGQEREFVAAISWSGRAPYADSVKGRFTISRDNAKNTVYLQMNSLKPEDTGVYYCAGGEGAIKWTTLDAYDYWGQGTQVTVSSGGGGSGGGGSQLQLVESGGGLVQPGGSLRLSCAASGFTLDDYTIGWFRQAPGKEREGVSCINSITSNTYYADSVKGRFTISRDNAKNTVYLQMNSLTAEDTAIYYCAADSGLFSGSSCLKYRAMRFGSWGQGTQVTVSS
notes: Biparatopic: two anti-porcine CD163 VHHs in one chain; also called 19-17; 03D03+03E11; not shown: FLAG and His tags
B6: 03D03 + 17B11 + 03E11 2(G4S) triparatopic VHH construct (bispecific antibody)
chain: QLQLVESGGGLVQPGGSLRLSCAASGFTLDDYTIGWFRQAPGKEREGVSCINSITSNTYYADSVKGRFTISRDNAKNTVYLQMNSLTAEDTAIYYCAADSGLFSGSSCLKYRAMRFGSWGQGTQVTVSSGGGGSGGGGSQVQLVESGGGLVQAGGSLRLSCAASGRTFSSYAMGWFRQTPGKDREFVARIGWTGGTTIYADSVKGRFTISRDNAKNTVYLQMNSLKPEDTAVYYCAADQAGWRTAGVRNTYEYDYWGQGTQVTVSSGGGGSGGGGSQVQLQESGGGLVQVGSSLRLSCVTSGRTPSRYVMGWFRQAPGQEREFVAAISWSGRAPYADSVKGRFTISRDNAKNTVYLQMNSLKPEDTGVYYCAGGEGAIKWTTLDAYDYWGQGTQVTVSS
notes: as for B1
B7: 17B11 + 03D03 5(G4S) biparatopic VHH construct (bispecific antibody)
chain: QVQLVESGGGLVQAGGSLRLSCAASGRTFSSYAMGWFRQTPGKDREFVARIGWTGGTTIYADSVKGRFTISRDNAKNTVYLQMNSLKPEDTAVYYCAADQAGWRTAGVRNTYEYDYWGQGTQVTVSSGGGGSGGGGSGGGGSGGGGSGGGGSQLQLVESGGGLVQPGGSLRLSCAASGFTLDDYTIGWFRQAPGKEREGVSCINSITSNTYYADSVKGRFTISRDNAKNTVYLQMNSLTAEDTAIYYCAADSGLFSGSSCLKYRAMRFGSWGQGTQVTVSS
notes: as for B3
B8: 03D03 + 03E11 + 17B11 2(G4S) triparatopic VHH construct (bispecific antibody)
chain: QLQLVESGGGLVQPGGSLRLSCAASGFTLDDYTIGWFRQAPGKEREGVSCINSITSNTYYADSVKGRFTISRDNAKNTVYLQMNSLTAEDTAIYYCAADSGLFSGSSCLKYRAMRFGSWGQGTQVTVSSGGGGSGGGGSQVQLQESGGGLVQVGSSLRLSCVTSGRTPSRYVMGWFRQAPGQEREFVAAISWSGRAPYADSVKGRFTISRDNAKNTVYLQMNSLKPEDTGVYYCAGGEGAIKWTTLDAYDYWGQGTQVTVSSGGGGSGGGGSQVQLVESGGGLVQAGGSLRLSCAASGRTFSSYAMGWFRQTPGKDREFVARIGWTGGTTIYADSVKGRFTISRDNAKNTVYLQMNSLKPEDTAVYYCAADQAGWRTAGVRNTYEYDYWGQGTQVTVSS
notes: as for B1
B9: 03E11 + 17B11 5(G4S) biparatopic VHH construct (bispecific antibody)
chain: QVQLQESGGGLVQVGSSLRLSCVTSGRTPSRYVMGWFRQAPGQEREFVAAISWSGRAPYADSVKGRFTISRDNAKNTVYLQMNSLKPEDTGVYYCAGGEGAIKWTTLDAYDYWGQGTQVTVSSGGGGSGGGGSGGGGSGGGGSGGGGSQVQLVESGGGLVQAGGSLRLSCAASGRTFSSYAMGWFRQTPGKDREFVARIGWTGGTTIYADSVKGRFTISRDNAKNTVYLQMNSLKPEDTAVYYCAADQAGWRTAGVRNTYEYDYWGQGTQVTVSS
notes: as for B3
B10: 03E11 + 17B11 + 03D03 2(G4S) triparatopic VHH construct (bispecific antibody)
chain: QVQLQESGGGLVQVGSSLRLSCVTSGRTPSRYVMGWFRQAPGQEREFVAAISWSGRAPYADSVKGRFTISRDNAKNTVYLQMNSLKPEDTGVYYCAGGEGAIKWTTLDAYDYWGQGTQVTVSSGGGGSGGGGSQVQLVESGGGLVQAGGSLRLSCAASGRTFSSYAMGWFRQTPGKDREFVARIGWTGGTTIYADSVKGRFTISRDNAKNTVYLQMNSLKPEDTAVYYCAADQAGWRTAGVRNTYEYDYWGQGTQVTVSSGGGGSGGGGSQLQLVESGGGLVQPGGSLRLSCAASGFTLDDYTIGWFRQAPGKEREGVSCINSITSNTYYADSVKGRFTISRDNAKNTVYLQMNSLTAEDTAIYYCAADSGLFSGSSCLKYRAMRFGSWGQGTQVTVSS
notes: as for B1
B11: 17B11 + 03D03 2(G4S) biparatopic VHH construct (bispecific antibody)
chain: QVQLVESGGGLVQAGGSLRLSCAASGRTFSSYAMGWFRQTPGKDREFVARIGWTGGTTIYADSVKGRFTISRDNAKNTVYLQMNSLKPEDTAVYYCAADQAGWRTAGVRNTYEYDYWGQGTQVTVSSGGGGSGGGGSQLQLVESGGGLVQPGGSLRLSCAASGFTLDDYTIGWFRQAPGKEREGVSCINSITSNTYYADSVKGRFTISRDNAKNTVYLQMNSLTAEDTAIYYCAADSGLFSGSSCLKYRAMRFGSWGQGTQVTVSS
notes: as for B3

Experiments:
[1] = molecular target: T1, porcine CD163, membrane-bound form on porcine pulmonary alveolar macrophage (pPAM) WT cells (porcine, UniProt Q2VL90 47-1115); experiment: dose-response FACS on pPAM WT cells, anti-FLAG-biotin and streptavidin R-PE detection
T1 construct: Native CD163 on primary cells; also called membrane CD163; cell-surface CD163
T1 sequence: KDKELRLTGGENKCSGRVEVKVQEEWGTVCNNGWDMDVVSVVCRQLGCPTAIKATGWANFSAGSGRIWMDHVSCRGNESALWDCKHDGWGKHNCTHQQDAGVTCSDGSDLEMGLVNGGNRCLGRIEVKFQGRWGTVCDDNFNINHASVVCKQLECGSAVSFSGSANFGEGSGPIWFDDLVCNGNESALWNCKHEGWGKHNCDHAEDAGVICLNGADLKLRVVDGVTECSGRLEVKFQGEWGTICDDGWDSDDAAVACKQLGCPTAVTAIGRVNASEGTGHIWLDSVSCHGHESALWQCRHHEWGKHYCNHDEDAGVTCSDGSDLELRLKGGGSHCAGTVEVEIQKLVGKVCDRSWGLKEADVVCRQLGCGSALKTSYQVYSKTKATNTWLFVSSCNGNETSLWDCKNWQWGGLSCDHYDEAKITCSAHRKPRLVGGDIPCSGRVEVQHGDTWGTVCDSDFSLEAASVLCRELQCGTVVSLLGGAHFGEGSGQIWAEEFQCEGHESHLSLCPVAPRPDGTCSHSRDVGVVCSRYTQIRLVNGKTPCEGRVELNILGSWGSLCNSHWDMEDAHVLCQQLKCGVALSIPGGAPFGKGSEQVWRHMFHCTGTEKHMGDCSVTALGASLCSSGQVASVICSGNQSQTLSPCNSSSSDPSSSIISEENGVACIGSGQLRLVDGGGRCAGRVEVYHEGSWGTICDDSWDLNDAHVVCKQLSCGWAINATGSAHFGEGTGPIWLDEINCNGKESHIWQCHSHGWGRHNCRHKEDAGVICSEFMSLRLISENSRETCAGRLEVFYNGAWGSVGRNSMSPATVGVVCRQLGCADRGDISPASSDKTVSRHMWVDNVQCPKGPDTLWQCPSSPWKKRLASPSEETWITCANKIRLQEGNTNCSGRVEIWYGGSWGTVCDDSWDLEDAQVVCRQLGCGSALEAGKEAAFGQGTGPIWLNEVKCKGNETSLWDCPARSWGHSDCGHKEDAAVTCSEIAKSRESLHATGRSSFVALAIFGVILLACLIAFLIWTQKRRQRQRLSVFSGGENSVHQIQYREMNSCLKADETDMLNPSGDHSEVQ
Procedure: Biparatopic and triparatopic antibody constructs in PBS (pH7.4) were diluted in a 3-fold serial dilutions from 150 nM down to 0.023 nM in FACS buffer (0.5% FBS, 0.5 mM EDTA in 1×PBS pH7.4). Biparatopic and triparatopic candidates were incubated with anti-FLAG-Biotin (Sigma, Cat. nr. F9291), for 30 min on ice with shaking. This mixture was added to pPAM WT cells and incubated for 60 min on ice with gentle shaking. Cells were washed 3×with 150 μl/well of FACS buffer and incubated with 50 μl/well of the secondary detection reagent Streptavidin R-P.E. conjugate antibody (Invitrogen, Cat. nr. SA10044) for 30 min on ice with shaking and protected from light. Cells were then washed 3× with 150 μl/well of FACS Buffer and resuspended in 50 μl/well of FACS buffer to be measured on a FACS machine (Attune™ N×T), and a total of 10000 cells were acquired per sample.

[2] = molecular target: T1, porcine CD163, membrane-bound form on …; experiment: cell-based or functional assay
[3] = molecular target: T1, porcine CD163, membrane-bound form on …; experiment: cell-based or functional assay; remark: listed apart in the source

Binder	EC50 [1]	other results
B1	8 nM	–
B2	9.1 nM	IC50, PRRSV1 LT3 infection assay, high CD163 porcine serum [2]: 2.96 nM; IC50, PRRSV1 LT3 infection assay, low CD163 porcine serum [2]: 2.81 nM; IC50, PRRSV2 strain MN184 infection assay, 10% FBS [3]: 2.13 nM; IC50, PRRSV2 strain NA174 infection assay, high CD163 porcine serum [3]: 5.01 nM; IC50, PRRSV2 strain NA174 infection assay, low CD163 porcine serum [3]: 4.99 nM
B3	6.8 nM	–
B4	6.5 nM	–
B5	8.4 nM	–
B6	13.6 nM	–
B7	6.6 nM	–
B8	3.8 nM	–
B9	8.4 nM	–
B10	18.2 nM	–
B11	6.6 nM	–
